Here are results for two molecules from PMC4504729 (Journal of Medicinal Chemistry, 2014).

Several values for one entry are separate records, joined by “and”; a condition that tells them apart may be missing. Equal entries are not always repeated.

Experiment [1] addresses mouse NGF (nerve growth factor, from mouse submaxillary salivary glands) (mouse) (UniProt P01139).
Experiment [2] concerns the target T1, mouse NGF (nerve growth factor, from mouse submaxillary salivary glands) (mouse, UniProt P01139 122-241). The experiment can be described thus: cell-based or functional assay.
The next experiment concerns the target 125I-labeled NGF (UniProt P01139 122-241, 125I label). The experiment can be described thus: radioligand binding; competition: 15N-labeled TrkAIg2-NMR at varied concentration sequesters 125I-labeled NGF from full-length human TrkA on HEK cells. The note with it: both partners purified.
Experiment [3] has as its target T1, mouse NGF (nerve growth factor, from …). The experiment is described as follows: SEC; Superdex 75 gel filtration; TrkAIg2-NMR and mouse NGF applied separately and as a 1:1 ratio complex (1 mg/mL of each); 50 mM phosphate buffer, 150 μM NaCl, pH 7.4; sizes from a calibration curve. The note with it: both partners purified. (In general: SEC sorts molecules by how far they enter the pores of the column.)

T1 sequence (P01139 122-241): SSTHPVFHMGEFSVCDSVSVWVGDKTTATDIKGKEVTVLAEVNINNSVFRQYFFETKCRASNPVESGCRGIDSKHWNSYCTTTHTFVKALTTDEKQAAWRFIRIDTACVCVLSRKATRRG
Sequence of 125I-labeled NGF (P01139 122-241): as above
Sequence of mouse NGF (nerve growth factor, from mouse submaxillary salivary glands) (mouse) (P01139 122-241): as above

In experiment [1], “"wild-type" TrkAIg2 (TrkAIg2-WT) (domain or fragment)” registered an NGF-dependent PC12 cell survival/proliferation (MTS assay, mouse NGF 5 ng/mL), serial dilutions of TrkAIg2-WT; EC50 of the reduction of 480 nM.

B1: TrkAIg2-NMR (domain or fragment, human)
chain: MDDDDDVSFCASVQLHTAVEMHHWCIPFSVDGQPAPSLRWLFNGSVLNETSFIFTEFLEPAANETVRHGCLRLNQPTHVNNGNYTLLAANPCGQASASIMAAFMDNPF
B1: in experiment [2], the “NGF-dependent PC12 cell survival/proliferation (MTS assay, mouse NGF 5 ng/mL), serial dilutions of TrkAIg2-NMR; EC50 of the reduction” value was 2100 nM. Further, the half-maximal inhibitory concentration (IC50) (usually the concentration needed to halve the response being measured) in the experiment with 125I-labeled NGF was ~5000 nM and ~2000 nM. Besides, in experiment [3], the “stoichiometry N” value was 2 TrkAIg2-NMR monomers per NGF dimer.
